Reference: paper PMC9519457 (Nature Microbiology, 2022)

Tests used:
Assay in all cases: BLI
Conditions in all cases: both partners purified
SARS-CoV-2 wild-type RBD [1] = target: T1, SARS-CoV-2 wild-type RBD (SARS-CoV-2 wild type)
SARS-CoV-2 wild-type RBD [2] = target: T1, SARS-CoV-2 wild-type RBD; remark: listed apart in the source
SARS-CoV-2 wild-type RBD [3] = target: T1, SARS-CoV-2 wild-type RBD; remark: listed apart in the source
SARS-CoV-2 wild-type RBD [4] = target: T1, SARS-CoV-2 wild-type RBD; remark: listed apart in the source
[5] = target: SARS-CoV-2 RBD (residues 319-541), wild type (SARS-CoV-2, wild type, UniProt P0DTC2)

B1: C978 (antibody, V domains shown)
VH: QVQLVQSGAEVKKPGSSVKVSCKASGATFSNYIISWVRQAPGQGLEWMGRTIPLLDIANYAQKFQGRVTITADKSTRIVYMHLGSLTSEDTAVYYCATGKGYSSSSAAYYFDHWGQGTLVTVSS
VL: QSVLTQPPSVSGAPGQRVTISCTGTNSNIGAGYDIHWYQQLPGTAPKLLIYGSNNRPSGVPDRFSGSKSGTSASLAITGLQAEDEADYYCQSYDSSLSGSEVFGGGTKLTVL
notes: human IgG1
With B1 the Kd (SARS-CoV-2 wild-type RBD [1]) was 0.99 nM, the koff (SARS-CoV-2 wild-type RBD [1]) was 0.000524 s⁻¹ and the kon (SARS-CoV-2 wild-type RBD [1]) was 531000 M⁻¹ s⁻¹.

B2: FC08 (antibody, V domains shown)
VH: QLLQQSGAEVKKPGSSVKVSCKASGGTFSSYAISWVRQAPGQGLEWMGGIIPIIGIANYAQKFQGRVTITADKSTSTAYMELSSLRSEDTAVYYCARERGYSGYGAAYYFDYWGQGTLVTVSS
VL: SVLTQPPSVSGAPGQRVTISCTGSSSNIGAGYDVHWYQQLPGTAPKLLIYGNSNRPSGVPDRFSGSKSGTSASLAITGLQAEDEADYYCQSYDSSLSGSVFGGGTKLTVL
Work on B2 yielded a Kd (SARS-CoV-2 wild-type RBD [2]) of 0.35 nM, a koff (SARS-CoV-2 wild-type RBD [2]) of 0.00028 s⁻¹ and a kon (SARS-CoV-2 wild-type RBD [2]) of 797000 M⁻¹ s⁻¹.

B3: C963 (antibody, V domains shown)
VH: QVQLVQSGAEVKKPGSSVRVSCKASGGTFSSFTITWVRQAPGQGLEWMGRIIPNLNIPNYAQRFQGRITITAEKSTSTAYLELSSLRSEDTAVYYCARGVGYSGSGSNWYFDLWGRGTLVTVSS
VL: QSVLTQPPSVSGAPGQRVTISCTGSSSNIGAGYDVHWYQQLPGTAPKLLISGHINRPSGVPDRFSGSTSGTSASLAITGLQAEDEADYYCQSYDSSLSDSVFGGGTKLTV
notes: human IgG1
Work on B3 yielded a Kd (SARS-CoV-2 wild-type RBD [1]) of 0.84 nM, a koff (SARS-CoV-2 wild-type RBD [1]) of 0.000593 s⁻¹ and a kon (SARS-CoV-2 wild-type RBD [1]) of 709000 M⁻¹ s⁻¹.

B4: C941 (antibody, V domains shown)
VH: QVQLVQSGAEVKKPGSSVKVSCKASGGTSRSYPISWVRQAPGQGLEWMGRIIPIVGTANYAQRFQGRVTITADESTGTAYMELSSLRSEDTAVYYCARNRGYSDYGSVYYFDYWGQGTLVTVSS
VL: QSVLTQPPSVSGAPGQRVTISCTGSSSNIGAGYDVHWYQQLPGAAPKLLIYRNINRPSGVPDRFSGSKSGTSASLAITGLQADDEADYYCQSYDSSLSGSVFGGGTKLTV
notes: human IgG1
B4 gave a Kd (SARS-CoV-2 wild-type RBD [1]) of 0.77 nM, a koff (SARS-CoV-2 wild-type RBD [1]) of 0.000117 s⁻¹ and a kon (SARS-CoV-2 wild-type RBD [1]) of 153000 M⁻¹ s⁻¹.

B5: R1-32 (antibody, V domains shown)
VH: EVQLVESGAEVKKPGSSVKVSCKASGGTFSSYAISWVRQAPGQGLEWMGGIIPILGIANYAQKFQGRVTITADKSTSTAYMELSSLRSEDTAVYYCARENGYSGYGAAANFDLWGRGTLVTVSS
VL: QSVLTQPPSVSGAPGQRVTISCTGSSSNIGAGYDVHWYQQLPGTAPKLLIYGNSNRPSGVPDRFSGSKSGTSASLAITGLQAEDEADYYCQSYDSSLSGSVFGGGTKLTVL
notes: human IgG1
B5 showed a Kd (SARS-CoV-2 wild-type RBD [3]) of 2.8 nM, a koff (SARS-CoV-2 wild-type RBD [3]) of 0.00149 s⁻¹ and a kon (SARS-CoV-2 wild-type RBD [3]) of 533000 M⁻¹ s⁻¹. It also gave a koff (SARS-CoV-2 wild-type RBD [4]) of 0.000376 s⁻¹ and a kon (SARS-CoV-2 wild-type RBD [4]) of 472000 M⁻¹ s⁻¹.

B6: C091 (antibody, V domains shown)
VH: QVQLVQSGAEVKKPGSSVKVSCKASGGTFSSYTISWVRQAPGQGLEWMGRIIPILGIANYAQKFQGRVTITADKSTSTAYMELSSLRSEDTAVYYCARDSGYSGYGSTYYMDVWGKGTTVTVSS
VL: QSVLTQPPSVSGAPGQRVTISCTGSSSNIGAGYDVHWYQQLPGTAPKLLIYGNSNRPSGVPDRFSGSKSGTSASLAITGLQAEDEADYYCQSYDSSLSGSVFGTVTKVTVL
notes: human IgG1
B6 showed a Kd (SARS-CoV-2 wild-type RBD [1]) of 9.75 nM, a koff (SARS-CoV-2 wild-type RBD [1]) of 0.00337 s⁻¹ and a kon (SARS-CoV-2 wild-type RBD [1]) of 346000 M⁻¹ s⁻¹.

B7: C807 (antibody, V domains shown)
VH: QVQLVQSGAEAKKPGSSVKVSCKASGGTFKSYIINWVRQAPGQGLEWMGEIIPIFGTANYAQKFQGRVTSTADESTSTAYMELSSLKSEDTAVYYCARGRGYSGYGASYYFDYWGQGTLVTVSS
VL: QSVLTQPPSVSGAPGQRVTISCTGSNSNIGAGYDVHWYQQLPGTAPKLLIYANSNRPSGVPDRFSGSKSGTSASLAITGLQAEDEADYYCQSYDSGLSGSVFGGGTKLTVL
notes: human IgG1
In the case of B7, the Kd (SARS-CoV-2 wild-type RBD [1]) is reported as 0.79 nM, the koff (SARS-CoV-2 wild-type RBD [1]) is reported as 0.000431 s⁻¹ and the kon (SARS-CoV-2 wild-type RBD [1]) is reported as 547000 M⁻¹ s⁻¹.

B8: C832 (antibody, V domains shown)
VH: QVQLVQSGAEVKKPGSSVKVSCKASGGTFSSYSISWVRQAPGQGLEWMGRIIPILGIASYAQKFQGRVTITADKSTSTVYMELTGLRSDDTAVYYCARDRGYSDYGSHYYMDVWGKGTTVTVSS
VL: QSVLTQPPSVSGAPGQRVTISCTGSSSNIGAGYDVHWYQQLPGTAPKLLIYINSNRPSGVPDRFSGSKSGTSASLAITGLQAEDEADYYCQSYDSSLSDSVFGGGTKLTVL
notes: human IgG1
In the case of B8, the Kd (SARS-CoV-2 wild-type RBD [1]) is reported as 0.63 nM, the koff (SARS-CoV-2 wild-type RBD [1]) is reported as 0.000246 s⁻¹ and the kon (SARS-CoV-2 wild-type RBD [1]) is reported as 387000 M⁻¹ s⁻¹.

B9: C092 (antibody, V domains shown)
VH: QVQLVQSGAEVKKPGSSVKVSCKASGGSFTNHFISWVRQAPGQGLEWMGRIIPILGTANYAQNFQGRVMMTADKSTSTAYMELSSLRSEDTAVYYCARDSGYSGYGSTYYMDVWGKGTTVTVSS
VL: QSVLTQPPSVSGAPGQRVTISCTGSNSNIGAGYDVHWYQQLPGAAPKLLIYGNNNRPSGVPDRFSGSKSDTSASLAITGLQVEDEADYYCQSYDSSLSDSVFGSGTKVTVL
notes: human IgG1
B9 was tested, and the Kd (SARS-CoV-2 wild-type RBD [1]) was 0.16 nM, the koff (SARS-CoV-2 wild-type RBD [1]) was 0.000103 s⁻¹ and the kon (SARS-CoV-2 wild-type RBD [1]) was 642000 M⁻¹ s⁻¹.

B10: R1-32 (human IgG1 monoclonal antibody) (antibody, V domains shown)
VH: EVQLVESGAEVKKPGSSVKVSCKASGGTFSSYAISWVRQAPGQGLEWMGGIIPILGIANYAQKFQGRVTITADKSTSTAYMELSSLRSEDTAVYYCARENGYSGYGAAANFDLWGRGTLVTVSS
VL: QSVLTQPPSVSGAPGQRVTISCTGSSSNIGAGYDVHWYQQLPGTAPKLLIYGNSNRPSGVPDRFSGSKSGTSASLAITGLQAEDEADYYCQSYDSSLSGSVFGGGTKLTVL
In the case of B10, the Kd [5] is reported as 0.8 nM.
